B1: RANTES derivative: signature sequence SEQ ID NO: 60 fused to positions 10-68 of native RANTES (SEQ ID NO: 1) (ligand)
chain: QGPPLQWMQACCFAYIARPLPRAHIKEYFYTSGKCSNPAVVFVTRKNRQVCANPEKKWVREYINSLEMS
B2: RANTES derivative: signature sequence SEQ ID NO: 62 fused to positions 10-68 of native RANTES (SEQ ID NO: 1) (ligand)
chain: QGPPLMSTQVCCFAYIARPLPRAHIKEYFYTSGKCSNPAVVFVTRKNRQVCANPEKKWVREYINSLEMS
B3: RANTES derivative: signature sequence SEQ ID NO: 61 fused to positions 10-68 of native RANTES (SEQ ID NO: 1) (ligand)
chain: QGPPLQWMQVCCFAYIARPLPRAHIKEYFYTSGKCSNPAVVFVTRKNRQVCANPEKKWVREYINSLEMS
B4: RANTES derivative: signature sequence SEQ ID NO: 65 fused to positions 10-68 of native RANTES (SEQ ID NO: 1) (ligand)
chain: QGPPLMSLQACCFAYIARPLPRAHIKEYFYTSGKCSNPAVVFVTRKNRQVCANPEKKWVREYINSLEMS
B5: RANTES derivative: signature sequence SEQ ID NO: 64 fused to positions 10-68 of native RANTES (SEQ ID NO: 1) (ligand)
chain: QGPPLMSLQSCCFAYIARPLPRAHIKEYFYTSGKCSNPAVVFVTRKNRQVCANPEKKWVREYINSLEMS
B6: RANTES derivative: signature sequence SEQ ID NO: 18 fused to positions 10-68 of native RANTES (SEQ ID NO: 1) (ligand)
chain: QGPPGSYDYSCCFAYIARPLPRAHIKEYFYTSGKCSNPAVVFVTRKNRQVCANPEKKWVREYINSLEMS
B7: RANTES derivative: signature sequence SEQ ID NO: 69 fused to positions 10-68 of native RANTES (SEQ ID NO: 1) (ligand)
chain: QGPPLMSGQVCCFAYIARPLPRAHIKEYFYTSGKCSNPAVVFVTRKNRQVCANPEKKWVREYINSLEMS
B8: RANTES derivative: signature sequence SEQ ID NO: 21 fused to positions 10-68 of native RANTES (SEQ ID NO: 1) (ligand)
chain: QGPPGDWLQVCCFAYIARPLPRAHIKEYFYTSGKCSNPAVVFVTRKNRQVCANPEKKWVREYINSLEMS
B9: RANTES derivative: signature sequence SEQ ID NO: 63 fused to positions 10-68 of native RANTES (SEQ ID NO: 1) (ligand)
chain: QGPPLMSLSVCCFAYIARPLPRAHIKEYFYTSGKCSNPAVVFVTRKNRQVCANPEKKWVREYINSLEMS
B10: RANTES derivative: signature sequence SEQ ID NO: 23 fused to positions 10-68 of native RANTES (SEQ ID NO: 1) (ligand)
chain: QGPPLMSTQSCCFAYIARPLPRAHIKEYFYTSGKCSNPAVVFVTRKNRQVCANPEKKWVREYINSLEMS
B11: RANTES derivative: signature sequence SEQ ID NO: 12 fused to positions 10-68 of native RANTES (SEQ ID NO: 1) (ligand)
chain: QGPPLMWLGGCCFAYIARPLPRAHIKEYFYTSGKCSNPAVVFVTRKNRQVCANPEKKWVREYINSLEMS
B12: RANTES derivative: signature sequence SEQ ID NO: 7 fused to positions 10-68 of native RANTES (SEQ ID NO: 1) (ligand)
chain: QGPPLMWTQVCCFAYIARPLPRAHIKEYFYTSGKCSNPAVVFVTRKNRQVCANPEKKWVREYINSLEMS
B13: RANTES derivative: signature sequence SEQ ID NO: 14 fused to positions 10-68 of native RANTES (SEQ ID NO: 1) (ligand)
chain: QGPLLMWLQVCCFAYIARPLPRAHIKEYFYTSGKCSNPAVVFVTRKNRQVCANPEKKWVREYINSLEMS
B14: RANTES derivative: signature sequence SEQ ID NO: 8 fused to positions 10-68 of native RANTES (SEQ ID NO: 1) (ligand)
chain: QGPPLMWMQSCCFAYIARPLPRAHIKEYFYTSGKCSNPAVVFVTRKNRQVCANPEKKWVREYINSLEMS
B15: RANTES derivative: signature sequence SEQ ID NO: 13 fused to positions 10-68 of native RANTES (SEQ ID NO: 1) (ligand)
chain: QGPPLMWRGSCCFAYIARPLPRAHIKEYFYTSGKCSNPAVVFVTRKNRQVCANPEKKWVREYINSLEMS
B16: RANTES derivative: signature sequence SEQ ID NO: 22 fused to positions 10-68 of native RANTES (SEQ ID NO: 1) (ligand)
chain: QGPPLMSFQSCCFAYIARPLPRAHIKEYFYTSGKCSNPAVVFVTRKNRQVCANPEKKWVREYINSLEMS
B17: RANTES derivative: signature sequence SEQ ID NO: 10 fused to positions 10-68 of native RANTES (SEQ ID NO: 1) (ligand)
chain: QGPPLMWLQSCCFAYIARPLPRAHIKEYFYTSGKCSNPAVVFVTRKNRQVCANPEKKWVREYINSLEMS
B18: RANTES derivative: signature sequence SEQ ID NO: 16 fused to positions 10-68 of native RANTES (SEQ ID NO: 1) (ligand)
chain: QGPPGDTVLWCCFAYIARPLPRAHIKEYFYTSGKCSNPAVVFVTRKNRQVCANPEKKWVREYINSLEMS
B19: RANTES derivative: signature sequence SEQ ID NO: 67 fused to positions 10-68 of native RANTES (SEQ ID NO: 1) (ligand)
chain: QGPPLMSAQSCCFAYIARPLPRAHIKEYFYTSGKCSNPAVVFVTRKNRQVCANPEKKWVREYINSLEMS
B20: RANTES derivative: signature sequence SEQ ID NO: 66 fused to positions 10-68 of native RANTES (SEQ ID NO: 1) (ligand)
chain: QGPPLMSVQSCCFAYIARPLPRAHIKEYFYTSGKCSNPAVVFVTRKNRQVCANPEKKWVREYINSLEMS
B21: RANTES derivative: signature sequence SEQ ID NO: 15 fused to positions 10-68 of native RANTES (SEQ ID NO: 1) (ligand)
chain: QGPPLMQTTPCCFAYIARPLPRAHIKEYFYTSGKCSNPAVVFVTRKNRQVCANPEKKWVREYINSLEMS
B22: RANTES derivative: signature sequence SEQ ID NO: 68 fused to positions 10-68 of native RANTES (SEQ ID NO: 1) (ligand)
chain: QGPPLMSGQSCCFAYIARPLPRAHIKEYFYTSGKCSNPAVVFVTRKNRQVCANPEKKWVREYINSLEMS
B23: RANTES derivative: signature sequence SEQ ID NO: 19 fused to positions 10-68 of native RANTES (SEQ ID NO: 1) (ligand)
chain: QGPPGDGGSVCCFAYIARPLPRAHIKEYFYTSGKCSNPAVVFVTRKNRQVCANPEKKWVREYINSLEMS
B24: RANTES derivative: signature sequence SEQ ID NO: 20 fused to positions 10-68 of native RANTES (SEQ ID NO: 1) (ligand)
chain: QGPLSGQSTPCCFAYIARPLPRAHIKEYFYTSGKCSNPAVVFVTRKNRQVCANPEKKWVREYINSLEMS
B25: RANTES derivative: signature sequence SEQ ID NO: 3 fused to positions 10-68 of native RANTES (SEQ ID NO: 1) (ligand)
chain: QGPPLMWMQVCCFAYIARPLPRAHIKEYFYTSGKCSNPAVVFVTRKNRQVCANPEKKWVREYINSLEMS
B26: RANTES derivative: signature sequence SEQ ID NO: 11 fused to positions 10-68 of native RANTES (SEQ ID NO: 1) (ligand)
chain: QGPPLMALQVCCFAYIARPLPRAHIKEYFYTSGKCSNPAVVFVTRKNRQVCANPEKKWVREYINSLEMS
B27: RANTES derivative: signature sequence SEQ ID NO: 17 fused to positions 10-68 of native RANTES (SEQ ID NO: 1) (ligand)
chain: QGPPGDIVLACCFAYIARPLPRAHIKEYFYTSGKCSNPAVVFVTRKNRQVCANPEKKWVREYINSLEMS

Each binder was assayed against CCR5 (UniProt P51681) (assay: cell-based or functional assay).

Row | Binder | CCR5 sequestration (%) (% of control surface CCR5) | CCR5 signalling (%) (% of Emax of PSC-RANTES) | anti-HIV potency (IC50, nM) by cell fusion assay [nM] | anti-HIV potency (IC50, nM) by viral replication assay [nM]
1 | B1 | 8 | 11.8 | 0.02 | –
2 | B2 | 45 | 29.6 | 0.03 | –
3 | B3 | 7 | 12.7 | 0.02 | –
4 | B4 | 30 | 11.5 | 0.04 | –
5 | B5 | 28 | 17.2 | 0.04 | –
6 | B6 | 69 | 90.1 | 0.08 | –
7 | B7 | 38 | 20.1 | 0.22 | –
8 | B8 | 54 | 14.2 | 0.54 | –
9 | B9 | 50 | 42.7 | 0.03 | –
10 | B10 | 35 | 5.3 | 0.03 | 0.625
11 | B11 | 4 | 4.1 | 0.03 | 0.204
12 | B12 | 10 | 0.7 | 0.02 | 0.179
13 | B13 | 8 | 1.4 | 0.13 | –
14 | B14 | 0 | 2.5 | 0.03 | 0.278
15 | B15 | 9 | < 5 | 0.07 | –
16 | B16 | 12 | 2.4 | 0.02 | 0.47
17 | B17 | 0 | 2.3 | 0.03 | 0.403
18 | B18 | 70 | 96.3 | 0.02 | 0.091
19 | B19 | 15 | 10.3 | 0.12 | –
20 | B20 | 42 | 33.4 | 0.07 | –
21 | B21 | 2 | 2.4 | 0.65 | –
22 | B22 | 24 | 10.6 | 0.17 | –
23 | B23 | 66 | 85.1 | 0.28 | –
24 | B24 | 71 | 95.6 | 0.66 | –
25 | B25 | 3 | < 5 | 0.02 | –
26 | B26 | 9 | 1.6 | 0.03 | –
27 | B27 | 70 | 87.7 | 0.02 | 129

— US20090317363A1
